Source: publication doi:10.1101/2021.01.28.428602 (bioRxiv, 2021)
Where two headings read alike, the source gives them in different places.

What was measured:
[1] = target: T1, α2β3γ2 GABAA receptor on COS7 cells (Rattus norvegicus (gamma-2 rat or mouse …, UniProt P23576;P63079;P18508)); test: immunostaining of cells or tissue
[2] = target: T2, α3β3γ2 GABAA receptor on COS7 cells (Rattus norvegicus (gamma-2 rat or mouse …, UniProt P20236;P63079;P18508)); test: immunostaining of cells or tissue
[3] = target: T3, α4β3γ2 GABAA receptor on COS7 cells (Rattus norvegicus (gamma-2 rat or mouse …, UniProt P28471;P63079;P18508)); test: immunostaining of cells or tissue
[4] = target: T4, α5β3γ2 GABAA receptor on COS7 cells (Rattus norvegicus (gamma-2 rat or mouse …, UniProt P19969;P63079;P18508)); test: immunostaining of cells or tissue
[5] = target: α1β3 GABAA receptor on COS7 cells (Rattus norvegicus (construct of ref. 7), UniProt P62813;P63079); test: immunostaining of cells or tissue
Chain of α1β3 GABAA receptor on COS7 cells (P62813 28-455, chain 1 of 2): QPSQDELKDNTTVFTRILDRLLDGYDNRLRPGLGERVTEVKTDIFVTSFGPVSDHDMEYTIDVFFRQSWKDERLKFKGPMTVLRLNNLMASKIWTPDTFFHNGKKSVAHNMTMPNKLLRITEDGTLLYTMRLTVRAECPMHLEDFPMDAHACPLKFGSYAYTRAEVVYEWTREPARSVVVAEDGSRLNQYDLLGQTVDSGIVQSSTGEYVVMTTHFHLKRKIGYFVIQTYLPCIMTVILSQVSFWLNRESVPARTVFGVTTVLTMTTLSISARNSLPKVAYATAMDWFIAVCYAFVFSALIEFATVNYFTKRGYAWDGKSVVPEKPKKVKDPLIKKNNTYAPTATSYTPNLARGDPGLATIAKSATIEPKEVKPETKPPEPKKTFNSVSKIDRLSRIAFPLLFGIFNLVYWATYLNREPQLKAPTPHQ
Chain of α1β3 GABAA receptor on COS7 cells (P63079 26-473, chain 2 of 2): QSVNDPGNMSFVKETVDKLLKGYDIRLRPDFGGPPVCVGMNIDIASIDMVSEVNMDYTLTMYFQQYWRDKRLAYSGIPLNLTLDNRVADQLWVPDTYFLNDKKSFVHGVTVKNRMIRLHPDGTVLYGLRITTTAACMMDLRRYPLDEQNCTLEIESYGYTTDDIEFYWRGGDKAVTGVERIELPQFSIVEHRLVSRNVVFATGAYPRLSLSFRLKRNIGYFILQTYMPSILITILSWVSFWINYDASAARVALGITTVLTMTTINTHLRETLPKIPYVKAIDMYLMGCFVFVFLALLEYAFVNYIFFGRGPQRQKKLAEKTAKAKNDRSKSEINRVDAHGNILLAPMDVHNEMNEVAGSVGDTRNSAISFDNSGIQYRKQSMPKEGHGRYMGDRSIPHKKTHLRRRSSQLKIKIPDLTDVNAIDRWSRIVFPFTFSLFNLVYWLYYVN

[6] = target: α1β3γ2 GABAA receptor on COS7 cells (Rattus norvegicus (gamma-2 rat or …, UniProt P62813;P63079;P18508)); test: immunostaining of cells or tissue
Chain of α1β3γ2 GABAA receptor on COS7 cells (Rattus norvegicus (P62813 28-455, chain 1 of 3): as the sequence (P62813 28-455, chain 1 of 2) above
Chain of α1β3γ2 GABAA receptor on COS7 cells (Rattus norvegicus (P63079 26-473, chain 2 of 3): as the sequence (P63079 26-473, chain 2 of 2) above
Chain of α1β3γ2 GABAA receptor on COS7 cells (Rattus norvegicus (P18508 39-466, chain 3 of 3): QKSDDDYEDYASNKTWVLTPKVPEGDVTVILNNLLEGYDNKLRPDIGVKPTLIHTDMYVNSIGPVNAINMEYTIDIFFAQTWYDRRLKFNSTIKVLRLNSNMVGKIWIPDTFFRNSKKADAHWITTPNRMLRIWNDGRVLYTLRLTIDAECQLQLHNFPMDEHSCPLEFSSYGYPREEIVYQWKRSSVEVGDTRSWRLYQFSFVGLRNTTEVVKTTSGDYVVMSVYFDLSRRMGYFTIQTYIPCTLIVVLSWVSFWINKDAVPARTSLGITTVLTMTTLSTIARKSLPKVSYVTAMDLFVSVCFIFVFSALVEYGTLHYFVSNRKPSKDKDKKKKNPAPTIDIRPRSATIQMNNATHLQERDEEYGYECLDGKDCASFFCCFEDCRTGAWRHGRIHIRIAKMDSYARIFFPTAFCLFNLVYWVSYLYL

[7] = target: GABAA receptor β3 subunit alone on COS7 cells (Rattus norvegicus (construct of ref. 7), UniProt P63079); test: immunostaining of cells or tissue
[8] = target: GABAA receptor γ2 subunit alone on COS7 cells (Rattus norvegicus (rat or mouse …, UniProt P18508)); test: immunostaining of cells or tissue
[9] = target: rat α1β3γ2 GABAA receptor on HEK293T cells (Rattus norvegicus, UniProt P62813;P63079;P18508); test: flow cytometry on cells
Chain of rat α1β3γ2 GABAA receptor on HEK293T cells (P62813 28-455, chain 1 of 3): as the sequence (P62813 28-455, chain 1 of 2) above
Chain of rat α1β3γ2 GABAA receptor on HEK293T cells (P63079 26-473, chain 2 of 3): as the sequence (P63079 26-473, chain 2 of 2) above
Chain of rat α1β3γ2 GABAA receptor on HEK293T cells (P18508 39-466, chain 3 of 3): as the sequence (P18508 39-466, chain 3 of 3) above

[10] = target: rat α1β3 GABAA receptor on HEK293T cells (Rattus norvegicus, UniProt P62813;P63079); test: immunostaining of cells or tissue
[11] = target: β3γ2 GABAA receptor subunits on COS7 cells (Rattus norvegicus (gamma-2 rat or …, UniProt P63079;P18508)); test: immunostaining of cells or tissue
[12] = target: T1, α2β3γ2 GABAA receptor on COS7 cells; test: immunostaining of cells or tissue; remark: listed apart in the source
[13] = target: T2, α3β3γ2 GABAA receptor on COS7 cells; test: immunostaining of cells or tissue; remark: listed apart in the source
[14] = target: T3, α4β3γ2 GABAA receptor on COS7 cells; test: immunostaining of cells or tissue; remark: listed apart in the source
[15] = target: T4, α5β3γ2 GABAA receptor on COS7 cells; test: immunostaining of cells or tissue; remark: listed apart in the source
[16] = target: α1β2γ2 GABAA receptor on COS7 cells (Rattus norvegicus (gamma-2 rat or …, UniProt P62813;P63138;P18508)); test: immunostaining of cells or tissue

T2 sequence (P20236 29-493, chain 1 of 3): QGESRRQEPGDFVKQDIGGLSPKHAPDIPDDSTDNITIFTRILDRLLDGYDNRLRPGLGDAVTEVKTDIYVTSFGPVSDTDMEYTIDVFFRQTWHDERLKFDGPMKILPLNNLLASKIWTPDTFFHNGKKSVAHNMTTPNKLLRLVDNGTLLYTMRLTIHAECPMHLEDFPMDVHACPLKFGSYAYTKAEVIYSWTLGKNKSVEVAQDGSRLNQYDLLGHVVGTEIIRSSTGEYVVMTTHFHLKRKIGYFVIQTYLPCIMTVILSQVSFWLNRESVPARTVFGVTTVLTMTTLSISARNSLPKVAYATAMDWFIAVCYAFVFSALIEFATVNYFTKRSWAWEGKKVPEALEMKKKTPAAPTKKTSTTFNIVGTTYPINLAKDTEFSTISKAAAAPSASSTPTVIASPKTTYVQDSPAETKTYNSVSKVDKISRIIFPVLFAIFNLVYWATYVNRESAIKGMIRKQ
T2 sequence (P63079 26-473, chain 2 of 3): as the sequence (P63079 26-473, chain 2 of 2) above
T2 sequence (P18508 39-466, chain 3 of 3): as the sequence (P18508 39-466, chain 3 of 3) above

B1: human monoclonal GABAAR antibody #113-115 (antibody, V domains shown)
VH: QVQLVQSGAEVKKPGASVKVSCKASGYTFISYDINWVRQATGQGLEWMGGMDPKSGNTGYAQKFQGRVTMTTNTAISTAYMELSSLRSEDTAVYYCVRGEQSYDRTGYSDWFDPWGQGTLVTVSS
VL: not shown
binding result [1]: no binding | binding result [2]: no binding | binding result [3]: no binding | binding result [4]: no binding | binding result [5]: binds | binding result [6]: binds | binding result [7]: no binding (tested: 5 μg/ml) | binding result [8]: no binding (tested: 5 μg/ml) | binding result [9]: binds | binding result [10]: binds

B2: human monoclonal GABAAR antibody #113-175 (antibody, V domains shown)
VH: EVQLLESGEGLVQPGGSLRLSCAASGFTFKTYAMSWVRQAPGKGLEWVSAISGSGASTYYADFVEGRFTISRDNSKNTLYLQMNSLRAEDTAVYYCAKEPPAMVWFGGGYFDYWGQGTLVTVSS
VL: EIVLTQSPATLSLSPGERATLSCRASQSVSSYLAWYQQKPGQAPRLLIYDASNRATGIPARFSGSGSGTDFTLTISSLEPEDFAVYYCQQRSNWPPYSFGQGTKLEIK
binding result [5]: no binding (tested: 5 μg/ml) | binding result [6]: binds | binding result [7]: no binding (tested: 5 μg/ml) | binding result [8]: no binding (tested: 5 μg/ml) | binding result [11]: no binding (tested: 5 μg/ml) | binding result [12]: no binding (tested: 5 μg/ml) | binding result [13]: no binding (tested: 5 μg/ml) | binding result [14]: no binding (tested: 5 μg/ml) | binding result [15]: no binding (tested: 5 μg/ml) | binding result [16]: binds | binding result [9]: binds
